Results from article PMC4802085 (2016).
Values belong to the binder of their own block, whether it stands above or below them.

Assays:
Gαi1 [1] = target: Gαi1 (Homo sapiens); assay: SPR
Gαi1 [2] = target: Gαi1 (Homo sapiens); assay: SPR; remark: listed apart in the source
HO1 [3] = target: T1, HO1 (Homo sapiens); assay: SPR
T1 chain: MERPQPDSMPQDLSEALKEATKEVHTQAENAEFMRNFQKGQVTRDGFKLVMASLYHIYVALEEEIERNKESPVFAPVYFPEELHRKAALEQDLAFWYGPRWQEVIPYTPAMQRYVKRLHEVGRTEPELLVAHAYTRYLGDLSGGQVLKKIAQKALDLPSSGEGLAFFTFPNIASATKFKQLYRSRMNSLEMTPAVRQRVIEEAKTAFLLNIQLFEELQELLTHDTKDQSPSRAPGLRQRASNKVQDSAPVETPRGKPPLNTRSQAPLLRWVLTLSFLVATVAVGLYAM

HO1 [4] = target: T1, HO1; assay: SPR
[5] = target: T2, recombinant PGRMC1 of the surface plasmon resonance analyses (human, UniProt O00264 44-195); assay: SPR; haem-bound PGRMC1
[6] = target: T2, recombinant PGRMC1 of the surface …; assay: SPR; haem-bound PGRMC1; remark: listed apart in the source

T2 sequence (O00264 44-195): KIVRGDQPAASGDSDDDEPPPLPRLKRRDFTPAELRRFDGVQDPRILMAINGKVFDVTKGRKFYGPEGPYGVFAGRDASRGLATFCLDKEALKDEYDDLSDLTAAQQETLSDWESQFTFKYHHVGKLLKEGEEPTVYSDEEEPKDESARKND
Sequence of Gαi1 (Homo sapiens) (chain, as listed by the source): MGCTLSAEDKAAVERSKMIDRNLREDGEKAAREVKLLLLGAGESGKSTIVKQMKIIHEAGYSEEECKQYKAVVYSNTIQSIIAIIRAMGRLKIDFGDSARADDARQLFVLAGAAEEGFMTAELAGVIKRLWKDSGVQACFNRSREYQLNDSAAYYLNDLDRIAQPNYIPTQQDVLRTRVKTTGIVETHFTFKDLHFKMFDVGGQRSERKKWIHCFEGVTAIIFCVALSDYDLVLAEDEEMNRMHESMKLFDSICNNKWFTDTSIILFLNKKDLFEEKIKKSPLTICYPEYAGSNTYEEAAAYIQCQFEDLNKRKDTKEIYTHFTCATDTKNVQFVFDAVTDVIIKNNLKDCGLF

Kd (Gαi1 [1]): 0.6 µM
koff (Gαi1 [2]): 0.0003 s⁻¹
B1: Neuroglobin (protein)
chain: MERPEPELIRQSWRAVSRSPLEHGTVLFARLFALEPDLLPLFQYNCRQFSSPEDCLSSPEFLDHIRKVMLVIDAAVTNVEDLSSLEEYLASLGRKHRAVGVKLSSFSTVGESLLYMLEKCLGPAFTPATRAAWSQLYGAVVQAMSRGWDGE
modifications: haem b bound (oxidation state not stated); literature comparison value, construct not given; check residues are from general knowledge, not the paper nucleotide state not stated; literature comparison value, construct and species not given; check residues are from general knowledge, not the paper

Kd (HO1 [3]): 2.4 µM
koff (HO1 [4]): 0.004 s⁻¹
B2: CPR (protein)
chain: MGDSHVDTSSTVSEAVAEEVSLFSMTDMILFSLIVGLLTYWFLFRKKKEEVPEFTKIQTLTSSVRESSFVEKMKKTGRNIIVFYGSQTGTAEEFANRLSKDAHRYGMRGMSADPEEYDLADLSSLPEIDNALVVFCMATYGEGDPTDNAQDFYDWLQETDVDLSGVKFAVFGLGNKTYEHFNAMGKYVDKRLEQLGAQRIFELGLGDDDGNLEEDFITWREQFWPAVCEHFGVEATGEESSIRQYELVVHTDIDAAKVYMGEMGRLKSYENQKPPFDAKNPFLAAVTTNRKLNQGTERHLMHLELDISDSKIRYESGDHVAVYPANDSALVNQLGKILGADLDVVMSLNNLDEESNKKHPFPCPTSYRTALTYYLDITNPPRTNVLYELAQYASEPSEQELLRKMASSSGEGKELYLSWVVEARRHILAILQDCPSLRPPIDHLCELLPRLQARYYSIASSSKVHPNSVHICAVVVEYETKAGRINKGVATNWLRAKEPAGENGGRALVPMFVRKSQFRLPFKATTPVIMVGPGTGVAPFIGFIQERAWLRQQGKEVGETLLYYGCRRSDEDYLYREELAQFHRDGALTQLNVAFSREQSHKVYVQHLLKQDREHLWKLIEGGAHIYVCGDARNMARDVQNTFYDIVAELGAMEHAQAVDYIKKLMTKGRYSLDVWS
modifications: FAD and FMN cofactors; literature comparison value, construct not given, full length and human species assumed haem state not stated; literature comparison value, the cited study may have used a C-terminally truncated soluble form

Kd [5]: 5.9 µM
koff [6]: 0.0012 s⁻¹
B3: recombinant CYP51 (enzyme)
chain: MAAAAGMLLLGLLQAGGSVLGQAMEKVTGGNLLSMLLIACAFTLSLVYLIRLAAGHLVQLPAGVKSPPYIFSPIPFLGHAIAFGKSPIEFLENAYEKYGPVFSFTMVGKTFTYLLGSDAAALLFNSKNEDLNAEDVYSRLTTPVFGKGVAYDVPNPVFLEQKKMLKSGLNIAHFKQHVSIIEKETKEYFESWGESGEKNVFEALSELIILTASHCLHGKEIRSQLNEKVAQLYADLDGGFSHAAWLLPGWLPLPSFRRRDRAHREIKDIFYKAIQKRRQSQEKIDDILQTLLDATYKDGRPLTDDEVAGMLIGLLLAGQHTSSTTSAWMGFFLARDKTLQKKCYLEQKTVCGENLPPLTYDQLKDLNLLDRCIKETLRLRPPIMIMMRMARTPQTVAGYTIPPGHQVCVSPTVNQRLKDSWVERLDFNPDRYLQDNPASGEKFAYVPFGAGRHRCIGENFAYVQIKTIWSTMLRLYEFDLIDGYFPTVNYTTMIHTPENPVIRYKRRSK
